Series [1] concerns the target trypsin-cleaved (truncated) recombinant murine cystatin C (mouse) (UniProt P21460). Kind of series: SEC; pH 5.0 and 5.5 (100 mM sodium acetate, 150 mM NaCl) and pH 5.5, 6.0, 7.0, 8.0 (100 mM sodium phosphate, 150 mM NaCl); 3 mg/mL protein kept at 4 °C overnight in the buffer; monomer to dimer ratio. On the technique in general: Size exclusion chromatography separates by hydrodynamic size, large species first.

For series [2] the target is unchanged. Nature of the series: SEC; pH 4.0: 100 mM sodium acetate, 150 mM sodium chloride; 3 mg/mL protein kept at 4 °C overnight in the buffer; monomer to dimer ratio.
The target of series [3] is recombinant murine cathepsin B, wild type, auto-activated (mouse).
Series [4] deals with the molecule itself. Nature of the series: SEC; Superdex 75 Increase 10/300 GL; running buffer 100 mM sodium acetate, 5 mM calcium chloride, 100 mM NaCl, pH 5.5; separation of monomer and dimer fractions.

Usually stoichiometry N stands for a count of units in the complex or per binding partner.

Regarding “trypsin-cleaved (truncated) recombinant murine cystatin C (from UniProt P21460 29-140) (domain or fragment)”, the figures for the percent present as dimer in series [1] and in series [2] were 70% and 100%, respectively.

B1: murine cystatin C dimer (dimer fraction isolated by size exclusion chromatography) (complex)
chain: ATPKQGPRMLGAPEEADANEEGVRRALDFAVSEYNKGSNDAYHSRAIQVVRARKQLVAGVNYFLDVEMGRTTCTKSQTNLTDCPFHDQPHLMRKALCSFQIYSVPWKGTHSLTKFSCKNA
Regarding B1, the CTSB activity at pH 5.5 (Arg-Arg-AMC) with the CST3 dimer fraction in series [3] is 3 fold.

B2: recombinant murine cystatin C (CST3), full-length (not trypsin-treated) (natural protein, mouse, UniProt P21460 21-140, looked up)
chain: B1 chain
notes: cystatin C, mouse, synthetic gene ordered without the signal peptide; The preparation is a mixture of monomer and dimer; the monomer fraction isolated by SEC is called mCST3; also called mCST3 (monomer fraction); CST3 monomers; source: E. coli SHuffle T7 Express, purified (Ni-IDA; monomer fraction by SEC); not shown: His-tag, N-terminal, kept; TEV protease cleavage site, N-terminal, kept
In the case of B2, the “stoichiometry N” value in series [4] is 2.
